Tests used:
[1] = test system: intestinal cells (colonic adenocarcinoma cells CaCo-2); assay: Cellular uptake of 3H-cholesterol from 3H-cholesterol oleate; assay type: cell-based; conditions: 5 nM human pancreatic cholesterol esterase (100 K), 1.5 mM taurocholate, no heparin
Method: For example, intestinal cells (colonic adenocarcinoma cells CaCo-2, American Type Cell Culture) were grown in T150 flasks in medium consisting of DME, 10% v/v fetal bovine serum, 50 ug/ml gentamicin and 2 mM sodium pyruvate. Uptake experiments were conducted using 10^5 intestinal cells in PBS buffer containing 5 mM CaCl2, pH 7.4 in the presence of 5 uM ^3 H-cholesterol oleate (SRA=50 dpm/pmol) embedded in phosphatidylcholine vesicles along with 10% v/v lipoprotein-depleted serum and 1.5 mM taurocholate. At time zero, 5 nM human pancreatic cholesterol esterase (100 K, homogeneous) was added to one set of flasks, an equivalent volume of buffer to another set, and 1 mg/ml final concentration bulk heparin together with 5 nM enzyme to a third set. At selected times, i.e., 0, 15, 30, 60, 120 and 480 min, medium was removed and the cells were washed with medium to allow quantitation of ^3 H-cholesterol uptake. In the absence of enzyme, cellular uptake of ^3 H-cholesterol was linear and occurred at a rate of 400 dpm/hr/10^5 cells. In the presence of cholesterol esterase, the rate of ^3 H-cholesterol uptake was 1,800 dpm/hr/10^5 cells.

[2] = test system: human pancreatic cholesterol esterase; assay: Binding of 125I-cholesterol esterase to small intestine vesicles and its displacement; conditions: in the presence of 5 mM taurocholate
Method: (§1) Vesicles contained 1.0 mg protein/ml, 30 ug total cholesterol/mg protein and 50 ug endogenous heparin/mg protein. ^125 I-cholesterol esterase (100K or 67K form) was added (0 to 400 pmol; 2,000 dpm/pmol) to 100 ug of protein of small intestine vesicles in 10 mM Tris-Cl, pH 7.2 for 15 min. at 37°. The concentration of offered ^125 I-cholesterol esterase varied between 10 nM and 1 uM. Experiments were performed utilizing 1% blotto to decrease nonspecific protein binding to the vesicles. After the 15 minute incubation at 37°, the reaction was quenched and the assay mixtures were filtered through wells of a Millipore system containing 0.2 micron pore filters presoaked in buffer. The filtrate was-collected to assess free (unbound) enzyme, and the filters were then immediately washed with 15 ml of cold buffer and counted for ^125 I. Total binding was defined as ^125 I-dpm bound to filter paper minus ^125 I-dpm detected in the same reaction without vesicles (background). Nonspecific binding (radioactivity bound to the vesicles in the presence of excess cold ligand) was quantitated as the amount of ^125 I-cholesterol esterase binding in the presence of a 1000-fold molar excess of unlabeled cholesterol esterase as described above. Specific binding is defined as the difference between total bound dpm and nonspecific-bound dpm (converted to moles bound by dividing by the SRA).

[3] = target: T1, human pancreatic cholesterol esterase (Homo sapiens, UniProt P19835); assay: as above; conditions: specific binding, 15 min at 37°, 10 mM Tris-Cl pH 7.2; read-out: KD of cholesterol esterase binding to small intestine vesicles (Scatchard analysis)
T1 construct: from tissue; host or cells: human pancreas (autopsy)
T1 sequence (P19835 21-753): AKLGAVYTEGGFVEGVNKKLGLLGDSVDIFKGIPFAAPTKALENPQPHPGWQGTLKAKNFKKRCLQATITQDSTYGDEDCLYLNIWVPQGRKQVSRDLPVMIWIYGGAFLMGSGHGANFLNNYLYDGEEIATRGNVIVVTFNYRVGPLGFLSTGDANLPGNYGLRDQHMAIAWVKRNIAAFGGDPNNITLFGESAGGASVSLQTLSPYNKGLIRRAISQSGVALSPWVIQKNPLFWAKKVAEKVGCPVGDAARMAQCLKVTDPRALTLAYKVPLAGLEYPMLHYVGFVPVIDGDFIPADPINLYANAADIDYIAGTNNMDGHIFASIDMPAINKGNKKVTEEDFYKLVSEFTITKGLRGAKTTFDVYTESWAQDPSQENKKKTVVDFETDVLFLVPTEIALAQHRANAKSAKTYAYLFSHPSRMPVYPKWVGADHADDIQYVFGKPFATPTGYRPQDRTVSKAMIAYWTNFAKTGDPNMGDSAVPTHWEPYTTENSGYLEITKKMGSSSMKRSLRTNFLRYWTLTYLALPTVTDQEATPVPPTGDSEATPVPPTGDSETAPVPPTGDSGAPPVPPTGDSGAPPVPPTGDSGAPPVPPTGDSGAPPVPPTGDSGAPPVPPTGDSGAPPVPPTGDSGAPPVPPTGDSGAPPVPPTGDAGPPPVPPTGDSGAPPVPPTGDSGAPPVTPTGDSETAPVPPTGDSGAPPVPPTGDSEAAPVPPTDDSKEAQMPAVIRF
Method: as §1

[4] = target: T2, human pancreatic cholesterol esterase (100 kDa) (Homo sapiens, UniProt P19835); assay: Triolein hydrolysis by human pancreatic cholesterol esterase (100 kDa); assay type: biochemical; conditions: purified 100 kDa esterase, in the presence of 5 mM taurocholate
T2 construct: from tissue; host or cells: human pancreas (autopsy)
T2 sequence (P19835 21-753): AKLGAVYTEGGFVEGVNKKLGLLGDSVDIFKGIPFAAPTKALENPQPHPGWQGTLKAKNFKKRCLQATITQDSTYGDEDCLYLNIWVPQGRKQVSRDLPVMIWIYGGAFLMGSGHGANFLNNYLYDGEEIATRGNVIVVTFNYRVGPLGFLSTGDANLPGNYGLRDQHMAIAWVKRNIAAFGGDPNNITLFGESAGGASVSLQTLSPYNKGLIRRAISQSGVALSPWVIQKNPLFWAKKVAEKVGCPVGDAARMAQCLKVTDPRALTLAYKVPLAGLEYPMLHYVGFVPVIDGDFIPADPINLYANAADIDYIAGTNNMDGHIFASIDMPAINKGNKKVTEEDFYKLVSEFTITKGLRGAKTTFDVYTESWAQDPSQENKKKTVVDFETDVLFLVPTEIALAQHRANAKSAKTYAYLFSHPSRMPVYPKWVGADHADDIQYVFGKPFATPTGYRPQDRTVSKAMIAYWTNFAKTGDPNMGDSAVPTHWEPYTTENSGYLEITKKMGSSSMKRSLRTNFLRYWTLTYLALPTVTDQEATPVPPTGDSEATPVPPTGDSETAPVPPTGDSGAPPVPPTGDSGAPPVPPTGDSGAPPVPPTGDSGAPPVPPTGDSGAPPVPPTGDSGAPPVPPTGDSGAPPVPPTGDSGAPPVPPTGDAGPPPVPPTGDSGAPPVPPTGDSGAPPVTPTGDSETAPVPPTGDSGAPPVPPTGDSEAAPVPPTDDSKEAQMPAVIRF
Description: (§2) Human pancreatic cholesterol esterase (100 kDa) and human pancreatic triglyceride lipase (52 kDa) were purified to homogeneity (Examples 1 and 3), and their abilities to cleave triglycerides and cholesteryl esters were compared. […] Virtually the same results were found with cholesteryl esters; the 100 kDa enzyme cleaved cholesterol oleate at a rate at least 490-fold greater than that found for the 52 kDa triglyceride lipase.

[5] = Cleavage of cholesterol oleate, 100 kDa enzyme compared with 52 kDa triglyceride lipase; assay type: biochemical, human
Description: as §2

B1: Human pancreatic cholesterol esterase (100K form): 100,000 molecular weight form of human pancreatic cholesterol esterase purified over heparin agarose (protein, UniProt P19835 21-753, looked up)
Bile salt-activated lipase: AKLGAVYTEGGFVEGVNKKLGLLGDSVDIFKGIPFAAPTKALENPQPHPGWQGTLKAKNFKKRCLQATITQDSTYGDEDCLYLNIWVPQGRKQVSRDLPVMIWIYGGAFLMGSGHGANFLNNYLYDGEEIATRGNVIVVTFNYRVGPLGFLSTGDANLPGNYGLRDQHMAIAWVKRNIAAFGGDPNNITLFGESAGGASVSLQTLSPYNKGLIRRAISQSGVALSPWVIQKNPLFWAKKVAEKVGCPVGDAARMAQCLKVTDPRALTLAYKVPLAGLEYPMLHYVGFVPVIDGDFIPADPINLYANAADIDYIAGTNNMDGHIFASIDMPAINKGNKKVTEEDFYKLVSEFTITKGLRGAKTTFDVYTESWAQDPSQENKKKTVVDFETDVLFLVPTEIALAQHRANAKSAKTYAYLFSHPSRMPVYPKWVGADHADDIQYVFGKPFATPTGYRPQDRTVSKAMIAYWTNFAKTGDPNMGDSAVPTHWEPYTTENSGYLEITKKMGSSSMKRSLRTNFLRYWTLTYLALPTVTDQEATPVPPTGDSEATPVPPTGDSETAPVPPTGDSGAPPVPPTGDSGAPPVPPTGDSGAPPVPPTGDSGAPPVPPTGDSGAPPVPPTGDSGAPPVPPTGDSGAPPVPPTGDSGAPPVPPTGDAGPPPVPPTGDSGAPPVPPTGDSGAPPVTPTGDSETAPVPPTGDSGAPPVPPTGDSEAAPVPPTDDSKEAQMPAVIRF
[1]
  rate of 3H-cholesterol uptake: 1,800 dpm/hr/10^5 cells
[2]
  specific binding to vesicles retained: 72%
[3]
  Kd: 100 nM
[4]
  rate of triolein hydrolysis: 1,970 nmol/hr/g pancreas
[5]
  rate of cholesterol oleate cleavage relative to the 52 kDa triglyceride lipase: at least 490 fold

Reference: patent US5492822A, “Method for recovering purified 100,000 dalton molecular weight fraction of human pancreatic cholesterol esterase” (Lange, III; Louis G., priority 1995, dated 1996)
